The source of these data is patent publication US20080260727A1.

The target in one test is 8.3 TcR. Kind of test: tetramer staining, flow cytometry on CD8+ T cells of 8.3 TcR-transgenic NOD mice. In general terms: Flow cytometry measures light scatter and fluorescence of single cells or particles in a stream.
Test [1] deals with human NKG2D (human) (UniProt P26718). Put plainly: cell-based or functional assay.
For test [2] the target is unchanged. Kind of test: flow cytometry on NKL cells, biotin mAb on ice 30 min, APC-streptavidin, before culture (0 h).
The target is the same in test [3]. Put plainly: flow cytometry on NKL cells, biotin mAb on ice 30 min, then 16 h at 37° C., APC-streptavidin (antibody left on the surface after culture).

A value given as a limit tells only on which side of the number the result lay.

Sequence of UniProt P26718 (P26718 whole entry T72A): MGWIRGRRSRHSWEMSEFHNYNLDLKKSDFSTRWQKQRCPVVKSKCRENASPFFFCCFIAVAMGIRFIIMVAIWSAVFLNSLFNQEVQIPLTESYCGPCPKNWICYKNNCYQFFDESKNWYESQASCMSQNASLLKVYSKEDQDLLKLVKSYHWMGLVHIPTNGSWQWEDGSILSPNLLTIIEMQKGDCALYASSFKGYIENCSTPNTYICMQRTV

“NRP-V7/H-2K^d tetramer (from UniProt P01902 22-305) (peptide-MHC)”: the percent of CD8+ T cells tetramer positive with 8.3 TcR was > 90%.

Take “mouse anti-human NKG2D mAb (R&D Systems clone 149810) (antibody)”: the decrease in expression of NKG2D on the cell surface with human NKG2D (human) [1] was 67%. Also, the mean fluorescence intensity (arbitrary units) (arbitrary units) with human NKG2D (human) [2] was 186; with human NKG2D (human) [3], 61.
